Assay results taken from US20110190196A1 (University of California, published 2011).
Read-outs that look alike come from different tables or passages of the source.

B1: N1154-5 (peptide)
peptide: DLRDRLDAWFDLFRDFLDRF
B2: N1154-3 (peptide)
peptide: DLRDKLDAWFDLFRDFLDRF
B3: N1154-1 (peptide)
peptide: ELRERLEAWFELFREFLERF
B4: SEQ ID NO:2 peptide (peptide)
peptide: ELREKLEAWFELFREFLERF
B5: N1154-2 (peptide)
peptide: ELRDKLEAWFDLFREFLERF
B6: N1154-4 (peptide)
peptide: ELRDRLEAWFDLFREFLERF

Assays:
Assay in all cases: cell-based or functional assay
[1] = molecular target: T1, ATP-binding cassette transporter A1 (ABCA1) (UniProt P41233 1-2261, limits assumed)
T1 sequence (P41233 whole entry): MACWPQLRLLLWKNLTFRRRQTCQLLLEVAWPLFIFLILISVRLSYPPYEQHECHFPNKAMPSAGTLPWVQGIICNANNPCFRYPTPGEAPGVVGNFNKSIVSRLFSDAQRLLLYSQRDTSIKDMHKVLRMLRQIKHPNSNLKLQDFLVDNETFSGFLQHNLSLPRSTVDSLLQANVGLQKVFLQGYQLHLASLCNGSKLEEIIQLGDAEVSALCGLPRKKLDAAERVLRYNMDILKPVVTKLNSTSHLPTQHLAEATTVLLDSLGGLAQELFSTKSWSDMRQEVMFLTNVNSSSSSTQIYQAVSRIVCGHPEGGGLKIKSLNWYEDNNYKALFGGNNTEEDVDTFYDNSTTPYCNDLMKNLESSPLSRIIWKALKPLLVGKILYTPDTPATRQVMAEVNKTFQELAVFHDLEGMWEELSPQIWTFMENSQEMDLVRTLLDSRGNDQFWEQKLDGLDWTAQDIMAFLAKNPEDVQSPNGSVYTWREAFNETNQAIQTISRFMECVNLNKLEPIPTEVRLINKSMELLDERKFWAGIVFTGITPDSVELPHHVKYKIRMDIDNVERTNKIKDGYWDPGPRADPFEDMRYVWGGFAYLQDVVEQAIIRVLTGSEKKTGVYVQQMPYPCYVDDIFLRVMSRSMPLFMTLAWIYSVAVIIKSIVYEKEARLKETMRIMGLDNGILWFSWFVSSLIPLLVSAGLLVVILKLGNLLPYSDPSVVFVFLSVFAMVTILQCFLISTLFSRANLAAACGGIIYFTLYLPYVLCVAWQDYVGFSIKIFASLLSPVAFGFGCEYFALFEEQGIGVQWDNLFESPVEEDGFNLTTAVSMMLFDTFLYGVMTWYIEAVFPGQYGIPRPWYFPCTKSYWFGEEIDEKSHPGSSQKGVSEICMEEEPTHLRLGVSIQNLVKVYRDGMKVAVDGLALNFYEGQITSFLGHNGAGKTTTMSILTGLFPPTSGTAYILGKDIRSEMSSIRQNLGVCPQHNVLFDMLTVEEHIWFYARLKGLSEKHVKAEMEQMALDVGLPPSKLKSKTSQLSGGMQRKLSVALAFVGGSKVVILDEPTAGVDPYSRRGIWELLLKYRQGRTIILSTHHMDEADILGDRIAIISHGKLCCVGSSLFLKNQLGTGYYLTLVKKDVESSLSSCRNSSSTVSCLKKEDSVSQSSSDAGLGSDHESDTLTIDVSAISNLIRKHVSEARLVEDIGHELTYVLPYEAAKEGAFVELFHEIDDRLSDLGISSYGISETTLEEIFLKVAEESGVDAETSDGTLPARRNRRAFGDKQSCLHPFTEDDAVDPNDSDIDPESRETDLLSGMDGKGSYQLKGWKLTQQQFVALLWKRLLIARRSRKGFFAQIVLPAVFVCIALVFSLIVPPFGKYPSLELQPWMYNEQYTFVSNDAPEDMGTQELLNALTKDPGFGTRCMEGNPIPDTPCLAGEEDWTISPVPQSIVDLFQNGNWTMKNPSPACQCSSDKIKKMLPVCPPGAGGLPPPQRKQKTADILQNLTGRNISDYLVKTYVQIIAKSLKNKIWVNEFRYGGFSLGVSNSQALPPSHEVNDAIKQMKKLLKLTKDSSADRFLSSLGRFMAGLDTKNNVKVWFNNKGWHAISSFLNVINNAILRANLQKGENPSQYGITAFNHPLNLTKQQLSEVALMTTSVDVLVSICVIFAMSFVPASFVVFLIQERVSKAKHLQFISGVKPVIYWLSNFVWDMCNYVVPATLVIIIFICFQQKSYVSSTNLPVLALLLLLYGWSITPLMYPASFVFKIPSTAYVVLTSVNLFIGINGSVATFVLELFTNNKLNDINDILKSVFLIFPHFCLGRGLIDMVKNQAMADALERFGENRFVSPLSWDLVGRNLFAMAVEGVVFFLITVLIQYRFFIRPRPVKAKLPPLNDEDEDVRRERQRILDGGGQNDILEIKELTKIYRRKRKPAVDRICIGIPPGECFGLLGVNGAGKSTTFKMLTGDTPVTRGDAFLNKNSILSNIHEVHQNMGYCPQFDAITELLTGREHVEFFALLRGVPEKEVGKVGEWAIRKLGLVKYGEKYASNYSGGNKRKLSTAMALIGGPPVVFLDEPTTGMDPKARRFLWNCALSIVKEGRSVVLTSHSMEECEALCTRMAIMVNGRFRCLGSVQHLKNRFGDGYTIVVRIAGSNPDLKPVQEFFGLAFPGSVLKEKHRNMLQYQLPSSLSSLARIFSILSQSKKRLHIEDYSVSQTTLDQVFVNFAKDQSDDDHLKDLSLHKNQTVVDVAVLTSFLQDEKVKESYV

[2] = molecular target: T1, ATP-binding cassette transporter A1 …; remark: listed apart in the source
[3] = molecular target: T1, ATP-binding cassette transporter A1 …; remark: listed apart in the source
[4] = molecular target: T1, ATP-binding cassette transporter A1 …; remark: listed apart in the source
[5] = molecular target: T1, ATP-binding cassette transporter A1 …; remark: listed apart in the source
[6] = molecular target: T1, ATP-binding cassette transporter A1 …; remark: listed apart in the source

Row | Molecule | Km of cholesterol efflux stimulation, mass basis (4 h efflux data, cAMP-treated J774 cells) [1] | Km of cholesterol efflux stimulation, molar basis [1] | % cholesterol efflux/8 hours, No cAMP [2] | % cholesterol efflux/8 hours, Plus cAMP [2] | % cholesterol efflux/4 hours at 0.1 µg/ml [3] | % cholesterol efflux/4 hours at 0.3 µg/ml [3] | % cholesterol efflux/4 hours at 1.0 µg/ml [3] | % cholesterol efflux/4 hours at 3.0 µg/ml [3] | % cholesterol efflux/4 hours at 10 µg/ml [3] | % cholesterol efflux/4 hours at 30 µg/ml [3] | % cholesterol efflux/8 hours, +cAMP [4] | % cholesterol efflux/8 hours, -cAMP [4] | % cholesterol efflux/4 hours at 0.1 µg/ml [5] | % cholesterol efflux/4 hours at 0.3 µg/ml [5] | % cholesterol efflux/4 hours at 1.0 µg/ml [5] | % cholesterol efflux/4 hours at 3.0 µg/ml [5] | % cholesterol efflux/4 hours at 10 µg/ml [5] | % cholesterol efflux/4 hours at 30 µg/ml [5] | efficiency of cholesterol efflux against apoA-I, mass basis [6]
1 | lipid-free apolipoprotein(apo)A-I (from UniProt P02647 19-267) (ligand) | 3.4 µg/mL | 0.12 | – | – | – | – | – | – | – | – | – | – | – | – | – | – | – | – | –
2 | B1 | – | – | 3.06% | 9.88% | 0% | 1.92% | 2.77% | 5.28% | 5.29% | 3.53% | – | – | – | – | – | – | – | – | –
3 | B2 | – | – | 1.61% | 3.29% | 0% | 0.19% | 1.31% | 2.66% | 2.12% | 2.21% | – | – | – | – | – | – | – | – | –
4 | B3 | – | – | 1.85% | 5.2% | 0.1% | 0.41% | 2.06% | 5.11% | 4.44% | 3.67% | – | – | – | – | – | – | – | – | –
5 | B4 | – | – | – | – | – | – | – | – | – | – | 5.26% | 2.29% | 0.15% | 0.52% | 1.72% | 4.6% | 3.62% | 3.66% | ~5 fold
6 | B5 | – | – | 1.47% | 3% | 0.03% | 0.51% | 2.17% | 2.59% | 2.14% | 1.66% | – | – | – | – | – | – | – | – | –
7 | B6 | – | – | 2.59% | 11.4% | 0% | 1.3% | 3.51% | 4.14% | 5.02% | 3.65% | – | – | – | – | – | – | – | – | –
